Data reported in patent US20250277031A1 (BEIJING HANMI PHARMACEUTICAL, published 2025).

How the values were obtained:
Assay in all cases: ELISA, plate coated with 1 µg/mL recombinant human protein, anti-human IgG-HRP, OD450; antibody concentration not given
[1] = target: T1, recombinant human CD28 (ACROBiosystems) (human, UniProt P10747 19-152)
T1 construct: counted here as a CD28 family member
Protocol: (§1) Binding specificity of the chimeric anti-human CD47 mAbs was determined by ELISA. A 96-well high-adsorption ELISA plate was coated with 1 μg/mL of the recombinant human PD1, CD28, CTLA4, ICOS, BTLA, CD47, PD-L2, CD80, CD86, B7-H2, CD47, SIRPα and SIRPγ (all from ACROBiosystems), at 100 μL per well using carbonate buffer solution, pH=9.6 at 4° C. overnight. The plate was washed 5 times with PBST, and then blocked using PBST with 1% BSA, 300 μL/well, and incubated at 25° C. for 1 hour, and then washed 5 times with PBST. The chimeric anti-human CD47 mAb samples serially diluted in PBST with 1% BSA and the control CC-90002 and the isotype control were added, 100 μL/well, incubated at 25° C. for 1 hour, and then washed 5 times with PBST. The horseradish peroxidase-labeled anti-human IgG antibody (Chemicon, catalog number AP309P) diluted 1:10000 in PBST with 1% BSA was then added, 100 μL per well, and incubated at 25° C. for 1 hour. The plate was washed 5 times with PBST. The colorimetric substrate TMB was added, 100 μL/well, and developed at room temperature for 10 minutes. 1M H₂SO₄ was added, 100 μL/well, to stop the development. The absorbance at 450 nm was read on a microplate reader.

[2] = target: T2, recombinant human CD86 (ACROBiosystems) (human, UniProt P42081 26-247, limits assumed)
T2 construct: counted here as a B7 family member
T2 sequence (looked up): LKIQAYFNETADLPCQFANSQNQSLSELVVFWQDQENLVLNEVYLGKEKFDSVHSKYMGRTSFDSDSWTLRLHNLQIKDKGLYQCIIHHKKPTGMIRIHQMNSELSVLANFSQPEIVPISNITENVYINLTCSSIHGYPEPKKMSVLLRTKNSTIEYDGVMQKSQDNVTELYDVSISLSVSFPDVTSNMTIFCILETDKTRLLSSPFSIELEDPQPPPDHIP
Protocol: as §1

[3] = target: T3, recombinant human BTLA (ACROBiosystems) (human, UniProt Q7Z6A9 31-151, limits assumed)
T3 construct: counted here as a CD28 family member
Protocol: as §1

[4] = target: T4, recombinant human CD80 (ACROBiosystems) (human, UniProt P33681 35-242)
T4 construct: counted here as a B7 family member
T4 sequence (looked up): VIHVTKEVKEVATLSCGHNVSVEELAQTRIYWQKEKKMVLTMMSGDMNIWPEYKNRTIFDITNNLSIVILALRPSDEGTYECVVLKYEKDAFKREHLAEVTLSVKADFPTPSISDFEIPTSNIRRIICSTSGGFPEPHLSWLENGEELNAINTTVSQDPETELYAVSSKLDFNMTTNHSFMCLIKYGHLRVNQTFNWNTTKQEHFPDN
Protocol: as §1

[5] = target: T5, recombinant human PD-L2 (ACROBiosystems) (human, UniProt Q9BQ51 20-219, limits assumed)
T5 construct: counted here as a B7 family member
T5 sequence (looked up): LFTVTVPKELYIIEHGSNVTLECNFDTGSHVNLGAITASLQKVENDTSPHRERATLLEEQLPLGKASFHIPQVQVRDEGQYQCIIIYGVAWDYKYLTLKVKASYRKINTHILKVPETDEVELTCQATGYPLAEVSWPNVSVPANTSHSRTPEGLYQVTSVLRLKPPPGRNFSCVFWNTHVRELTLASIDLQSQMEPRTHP
Protocol: as §1

[6] = target: T6, recombinant human ICOS (ACROBiosystems) (human, UniProt Q9Y6W8 21-140, limits assumed)
T6 construct: counted here as a CD28 family member
T6 sequence (looked up): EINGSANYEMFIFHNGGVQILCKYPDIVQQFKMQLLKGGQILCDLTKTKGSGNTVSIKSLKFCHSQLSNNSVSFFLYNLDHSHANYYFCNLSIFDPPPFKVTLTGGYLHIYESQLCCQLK
Protocol: as §1

[7] = target: T7, recombinant human SIRPα (ACROBiosystems) (human, UniProt P78324 31-370)
T7 construct: unlabelled protein coated in the specificity ELISA
Protocol: as §1

[8] = target: recombinant human SIRPγ (ACROBiosystems) (human, UniProt Q9P1W8 29-360, limits assumed)
Protocol: as §1

[9] = target: T8, recombinant human PD1 (ACROBiosystems) (human, UniProt Q15116 25-167)
T8 construct: counted here as a CD28 family member
Protocol: as §1

[10] = target: T9, recombinant human CTLA4 (ACROBiosystems) (human, UniProt P16410 37-162, limits assumed)
T9 construct: counted here as a CD28 family member
Protocol: as §1

Measured: binding result

T7 sequence (P78324 31-370 limits assumed): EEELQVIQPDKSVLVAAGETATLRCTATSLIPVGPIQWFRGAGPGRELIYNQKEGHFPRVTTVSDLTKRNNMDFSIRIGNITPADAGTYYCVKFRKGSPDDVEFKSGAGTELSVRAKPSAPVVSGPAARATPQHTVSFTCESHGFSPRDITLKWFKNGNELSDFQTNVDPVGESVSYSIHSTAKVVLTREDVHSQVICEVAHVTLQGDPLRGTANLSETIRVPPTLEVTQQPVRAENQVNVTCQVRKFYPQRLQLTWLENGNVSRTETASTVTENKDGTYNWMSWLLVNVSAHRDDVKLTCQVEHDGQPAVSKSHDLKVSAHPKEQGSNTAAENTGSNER
T3 sequence (Q7Z6A9 31-151 limits assumed): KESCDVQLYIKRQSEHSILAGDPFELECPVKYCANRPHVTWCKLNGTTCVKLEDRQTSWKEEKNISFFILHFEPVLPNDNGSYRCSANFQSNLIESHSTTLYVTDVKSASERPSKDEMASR
T9 sequence (P16410 37-162 limits assumed): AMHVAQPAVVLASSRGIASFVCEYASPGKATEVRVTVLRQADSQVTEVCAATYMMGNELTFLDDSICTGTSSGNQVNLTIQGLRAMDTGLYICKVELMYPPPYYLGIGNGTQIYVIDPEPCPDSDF
Sequence of recombinant human SIRPγ (ACROBiosystems) (Q9P1W8 29-360 limits assumed): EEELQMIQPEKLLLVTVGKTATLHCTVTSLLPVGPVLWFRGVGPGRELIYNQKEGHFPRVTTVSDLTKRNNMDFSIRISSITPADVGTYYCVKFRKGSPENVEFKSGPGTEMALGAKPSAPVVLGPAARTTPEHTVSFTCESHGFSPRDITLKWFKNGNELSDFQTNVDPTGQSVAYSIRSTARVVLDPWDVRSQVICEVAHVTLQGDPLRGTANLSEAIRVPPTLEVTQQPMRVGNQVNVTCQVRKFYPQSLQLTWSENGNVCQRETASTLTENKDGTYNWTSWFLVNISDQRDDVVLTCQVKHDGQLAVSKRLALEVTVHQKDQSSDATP
T8 sequence (Q15116 25-167 limits assumed): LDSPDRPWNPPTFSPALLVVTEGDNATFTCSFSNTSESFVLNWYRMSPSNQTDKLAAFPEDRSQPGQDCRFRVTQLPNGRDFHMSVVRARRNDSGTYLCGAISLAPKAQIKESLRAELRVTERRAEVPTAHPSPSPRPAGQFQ

B1: chimeric anti-human CD47 monoclonal antibody mAb-18-5 (antibody, human IgG1, kappa)
heavy: not shown
light: DIVMTQSQKFMSTSVGDRVSITCKASQNVRTSIAWYQQKSGQSPKTLIYLASNRHTGVPDRFTGSGSGTDFTLTISNVQSEDLADYFCLQHWNYPFTFGSGTKLEIKRTVAAPSVFIFPPSDEQLKSGTASVVCLLNNFYPREAKVQWKVDNALQSGNSQESVTEQDSKDSTYSLSSTLTLSKADYEKHKVYACEVTHQGLSSPVTKSFNRGEC
no binding: all assays above
